Starred links: 1 amine or outer side, 2 acyl side, 3 side chain; linkers in the order of their positions; H or OH if unused. Positions of bridges follow the written chain, without caps; N, C: chain ends. Non-standard residues stand in square brackets, D forms with d. No end group written: not given here. TATA = O=C(CC[*:1])N1CN(C(=O)CC[*:2])CN(C(=O)CC[*:3])C1; Phe(4-NO2) = N[C@@H](Cc1ccc([N+](=O)[O-])cc1)C(=O)O; Phe(3-F) = N[C@@H](Cc1cccc(F)c1)C(=O)O; Phe(3-Me) = Cc1cccc(C[C@H](N)C(=O)O)c1; Phe(4-F) = N[C@@H](Cc1ccc(F)cc1)C(=O)O; 1Nal = N[C@@H](Cc1cccc2ccccc12)C(=O)O; Phe(2-F) = N[C@@H](Cc1ccccc1F)C(=O)O; β3hR = N=C(N)NCCC[C@H](N)CC(=O)O; 3Pal = N[C@@H](Cc1cccnc1)C(=O)O
Legend:
[1] = target: T1, human β-FXIIa (HFXIIAB; Molecular Innovations) (human, UniProt P00748 354-362; P00748 373-615, limits assumed); assay: protease inhibition assay, fluorogenic substrate
T1 construct: domain: catalytic domain; Bought; also called human b-FXIIa; human FXIIa
T1 sequence (P00748 373-615 limits assumed, one chain of several): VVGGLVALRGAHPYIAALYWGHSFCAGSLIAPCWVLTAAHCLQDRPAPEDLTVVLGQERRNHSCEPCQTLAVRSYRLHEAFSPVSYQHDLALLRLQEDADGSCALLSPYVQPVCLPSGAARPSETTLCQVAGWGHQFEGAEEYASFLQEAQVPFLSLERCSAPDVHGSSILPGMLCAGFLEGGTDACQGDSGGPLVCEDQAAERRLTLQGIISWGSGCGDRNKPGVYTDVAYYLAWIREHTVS

[2] = target: T1, human β-FXIIa (HFXIIAB; Molecular …); assay: protease inhibition assay
[3] = target: T1, human β-FXIIa (HFXIIAB; Molecular …); assay: protease inhibition assay (Table in FIG. 6)
[4] = target: T1, human β-FXIIa (HFXIIAB; Molecular …); assay: protease inhibition assay; remark: listed apart in the source

Ki [1] [nM] | Ki [3] [nM] | Binder | also measured
10.4 | – | RC[Phe(3-Me)]RLPCRQLRCRW-NH2 (linker 2-7-12 via TATA; N-terminus assumed; SMILES Cc1cccc(C[C@@H]2NC(=O)[C@@H](NC(=O)[C@@H](N)CCCNC(=N)N)CSCCC(=O)N3CN4CN(C3)C(=O)CCSC[C@H](NC(=O)[C@@H]3CCCN3C(=O)[C@H](CC(C)C)NC(=O)[C@H](CCCNC(=N)N)NC2=O)C(=O)N[C@@H](CCCNC(=N)N)C(=O)N[C@@H](CCC(N)=O)C(=O)N[C@@H](CC(C)C)C(=O)N[C@@H](CCCNC(=N)N)C(=O)N[C@H](C(=O)N[C@@H](CCCNC(=N)N)C(=O)N[C@@H](Cc2c[nH]c3ccccc23)C(N)=O)CSCCC4=O)c1) [peptide 52 (peptide 2, methyl group in meta-position of the phenyl ring of Phe3)] | –
26 | – | RCFRLPCRQLRCRW-NH2 (linker 2-7-12 via TATA; N-terminus assumed; SMILES CC(C)C[C@@H]1NC(=O)[C@H](CCC(N)=O)NC(=O)[C@H](CCCNC(=N)N)NC(=O)[C@@H]2CSCCC(=O)N3CN(CN(C3)C(=O)CCSC[C@H](NC(=O)[C@@H](N)CCCNC(=N)N)C(=O)N[C@@H](Cc3ccccc3)C(=O)N[C@@H](CCCNC(=N)N)C(=O)N[C@@H](CC(C)C)C(=O)N3CCC[C@H]3C(=O)N2)C(=O)CCSC[C@@H](C(=O)N[C@@H](CCCNC(=N)N)C(=O)N[C@@H](Cc2c[nH]c3ccccc23)C(N)=O)NC(=O)[C@H](CCCNC(=N)N)NC1=O) [peptide 2 (FXII618 with a tryptophan appended to the C-terminus)] | –
283 | – | RCFKLPCRQLRCRW-NH2 (linker 2-7-12 via TATA; N-terminus assumed; SMILES CC(C)C[C@@H]1NC(=O)[C@H](CCC(N)=O)NC(=O)[C@H](CCCNC(=N)N)NC(=O)[C@@H]2CSCCC(=O)N3CN(CN(C3)C(=O)CCSC[C@H](NC(=O)[C@@H](N)CCCNC(=N)N)C(=O)N[C@@H](Cc3ccccc3)C(=O)N[C@@H](CCCCN)C(=O)N[C@@H](CC(C)C)C(=O)N3CCC[C@H]3C(=O)N2)C(=O)CCSC[C@@H](C(=O)N[C@@H](CCCNC(=N)N)C(=O)N[C@@H](Cc2c[nH]c3ccccc23)C(N)=O)NC(=O)[C@H](CCCNC(=N)N)NC1=O) [peptide 10 (peptide 2, Arg4 to lysine)] | fold reduction of activity vs peptide 2 [2]: 10 fold
– | < 100 | RCLRLPCRQLRCRW-NH2 (linker 2-7-12 via TATA; N-terminus assumed; SMILES CC(C)C[C@@H]1NC(=O)[C@H](CCC(N)=O)NC(=O)[C@H](CCCNC(=N)N)NC(=O)[C@@H]2CSCCC(=O)N3CN(CN(C3)C(=O)CCSC[C@H](NC(=O)[C@@H](N)CCCNC(=N)N)C(=O)N[C@@H](CC(C)C)C(=O)N[C@@H](CCCNC(=N)N)C(=O)N[C@@H](CC(C)C)C(=O)N3CCC[C@H]3C(=O)N2)C(=O)CCSC[C@@H](C(=O)N[C@@H](CCCNC(=N)N)C(=O)N[C@@H](Cc2c[nH]c3ccccc23)C(N)=O)NC(=O)[C@H](CCCNC(=N)N)NC1=O, Number tied to residue by the order of the list) [peptide 5 (peptide 2, Phe3 to leucine)] | fold reduction of activity vs peptide 2 [2]: > 2 fold
– | < 100 | RCYRLPCRQLRCRW-NH2 (linker 2-7-12 via TATA; N-terminus assumed; SMILES CC(C)C[C@@H]1NC(=O)[C@H](CCC(N)=O)NC(=O)[C@H](CCCNC(=N)N)NC(=O)[C@@H]2CSCCC(=O)N3CN(CN(C3)C(=O)CCSC[C@H](NC(=O)[C@@H](N)CCCNC(=N)N)C(=O)N[C@@H](Cc3ccc(O)cc3)C(=O)N[C@@H](CCCNC(=N)N)C(=O)N[C@@H](CC(C)C)C(=O)N3CCC[C@H]3C(=O)N2)C(=O)CCSC[C@@H](C(=O)N[C@@H](CCCNC(=N)N)C(=O)N[C@@H](Cc2c[nH]c3ccccc23)C(N)=O)NC(=O)[C@H](CCCNC(=N)N)NC1=O, Number tied to residue by the order of the list) [peptide 4 (peptide 2, Phe3 to tyrosine)] | fold reduction of activity vs peptide 2 [2]: > 2 fold
26 | – | RCWRLPCRQLRCRW-NH2 (linker 2-7-12 via TATA; N-terminus assumed; SMILES CC(C)C[C@@H]1NC(=O)[C@H](CCC(N)=O)NC(=O)[C@H](CCCNC(=N)N)NC(=O)[C@@H]2CSCCC(=O)N3CN(CN(C3)C(=O)CCSC[C@H](NC(=O)[C@@H](N)CCCNC(=N)N)C(=O)N[C@@H](Cc3c[nH]c4ccccc34)C(=O)N[C@@H](CCCNC(=N)N)C(=O)N[C@@H](CC(C)C)C(=O)N3CCC[C@H]3C(=O)N2)C(=O)CCSC[C@@H](C(=O)N[C@@H](CCCNC(=N)N)C(=O)N[C@@H](Cc2c[nH]c3ccccc23)C(N)=O)NC(=O)[C@H](CCCNC(=N)N)NC1=O) [peptide 3 (peptide 2, Phe3 to tryptophan)] | –
– | < 100 | RCPRLPCRQLRCRW-NH2 (linker 2-7-12 via TATA; N-terminus assumed; SMILES CC(C)C[C@@H]1NC(=O)[C@H](CCC(N)=O)NC(=O)[C@H](CCCNC(=N)N)NC(=O)[C@@H]2CSCCC(=O)N3CN(CN(C3)C(=O)CCSC[C@H](NC(=O)[C@@H](N)CCCNC(=N)N)C(=O)N3CCC[C@H]3C(=O)N[C@@H](CCCNC(=N)N)C(=O)N[C@@H](CC(C)C)C(=O)N3CCC[C@H]3C(=O)N2)C(=O)CCSC[C@@H](C(=O)N[C@@H](CCCNC(=N)N)C(=O)N[C@@H](Cc2c[nH]c3ccccc23)C(N)=O)NC(=O)[C@H](CCCNC(=N)N)NC1=O, Number tied to residue by the order of the list) [peptide 9 (peptide 2, Phe3 to proline)] | –
4.5 | – | RC[Phe(4-NO2)]RLPCRQLRCRW-NH2 (linker 2-7-12 via TATA; also: description names 2-nitro-phenylalanine, example says para) [peptide 60 (peptide 2, nitro group in para position of Phe3)] | –
2.31 | – | RC[Phe(4-F)]RLPCRQLRCRW-NH2 (linker 2-7-12 via TATA) [peptide 58 (peptide 2, fluorine in para-position of Phe3)] | –
– | – | H-[dR][dS]C[Phe(4-F)]RLPCHQL[β3hR]CR-NH2 (linker 3-8-13 via TATA; SMILES CC(C)C[C@@H]1NC(=O)[C@H](CCC(N)=O)NC(=O)[C@H](Cc2c[nH]cn2)NC(=O)[C@@H]2CSCCC(=O)N3CN(CN(C3)C(=O)CCSC[C@H](NC(=O)[C@@H](CO)NC(=O)[C@H](N)CCCNC(=N)N)C(=O)N[C@@H](Cc3ccc(F)cc3)C(=O)N[C@@H](CCCNC(=N)N)C(=O)N[C@@H](CC(C)C)C(=O)N3CCC[C@H]3C(=O)N2)C(=O)CCSC[C@@H](C(=O)N[C@@H](CCCNC(=N)N)C(N)=O)NC(=O)C[C@H](CCCNC(=N)N)NC1=O, rs is D-Arg-D-Ser; F^4F is 4-fluoro-phenylalanine) [JS33 (rsCF^4…^bCR)] | Ki [4]: 0.36 nM
28.8 | – | RCFRLPCRQLRC-NH2 (linker 2-7-12 via TATA; N-terminus assumed; SMILES CC(C)C[C@@H]1NC(=O)[C@H](CCC(N)=O)NC(=O)[C@H](CCCNC(=N)N)NC(=O)[C@@H]2CSCCC(=O)N3CN(CN(C3)C(=O)CCSC[C@H](NC(=O)[C@@H](N)CCCNC(=N)N)C(=O)N[C@@H](Cc3ccccc3)C(=O)N[C@@H](CCCNC(=N)N)C(=O)N[C@@H](CC(C)C)C(=O)N3CCC[C@H]3C(=O)N2)C(=O)CCSC[C@@H](C(N)=O)NC(=O)[C@H](CCCNC(=N)N)NC1=O) [peptide 63 (bicyclic peptide without the C-terminal arginine)] | –
8.4 | – | RC[3Pal]RLPCRQLRCRW-NH2 (linker 2-7-12 via TATA; N-terminus assumed; SMILES CC(C)C[C@@H]1NC(=O)[C@H](CCC(N)=O)NC(=O)[C@H](CCCNC(=N)N)NC(=O)[C@@H]2CSCCC(=O)N3CN(CN(C3)C(=O)CCSC[C@H](NC(=O)[C@@H](N)CCCNC(=N)N)C(=O)N[C@@H](Cc3cccnc3)C(=O)N[C@@H](CCCNC(=N)N)C(=O)N[C@@H](CC(C)C)C(=O)N3CCC[C@H]3C(=O)N2)C(=O)CCSC[C@@H](C(=O)N[C@@H](CCCNC(=N)N)C(=O)N[C@@H](Cc2c[nH]c3ccccc23)C(N)=O)NC(=O)[C@H](CCCNC(=N)N)NC1=O) [peptide 54 (peptide 2, carbon replaced with nitrogen in meta-position of the phenyl ring of Phe3)] | –
– | < 50 | H-RC[3‑benzothienylalanine]RLPCRQLRCRW-NH2 (linker 2-7-12 via TATA) [FXII618 variant with F in position three replaced by 3-benzothienylalanine] | –
– | < 50 | H-RC[1Nal]RLPCRQLRCRW-NH2 (linker 2-7-12 via TATA) [FXII618 variant with F in position three replaced by 1-naphthylalanine] | –
– | < 100 | RC[Phe(3-F)]RLPCRQLRCRW-NH2 (linker 2-7-12 via TATA) [peptide 57 (peptide 2, fluorine in meta-position of Phe3)] | –
13.1 | – | RC[Phe(2-F)]RLPCRQLRCRW-NH2 (linker 2-7-12 via TATA; N-terminus assumed; SMILES CC(C)C[C@@H]1NC(=O)[C@H](CCC(N)=O)NC(=O)[C@H](CCCNC(=N)N)NC(=O)[C@@H]2CSCCC(=O)N3CN(CN(C3)C(=O)CCSC[C@H](NC(=O)[C@@H](N)CCCNC(=N)N)C(=O)N[C@@H](Cc3ccccc3F)C(=O)N[C@@H](CCCNC(=N)N)C(=O)N[C@@H](CC(C)C)C(=O)N3CCC[C@H]3C(=O)N2)C(=O)CCSC[C@@H](C(=O)N[C@@H](CCCNC(=N)N)C(=O)N[C@@H](Cc2c[nH]c3ccccc23)C(N)=O)NC(=O)[C@H](CCCNC(=N)N)NC1=O) [peptide 56 (peptide 2, fluorine in ortho-position of Phe3)] | –
932 | – | CFRLPCRQLRCR-NH2 (linker 1-6-11 via TATA; N-terminus assumed; SMILES CC(C)C[C@@H]1NC(=O)[C@H](CCC(N)=O)NC(=O)[C@H](CCCNC(=N)N)NC(=O)[C@@H]2CSCCC(=O)N3CN(CN(C3)C(=O)CCSC[C@H](N)C(=O)N[C@@H](Cc3ccccc3)C(=O)N[C@@H](CCCNC(=N)N)C(=O)N[C@@H](CC(C)C)C(=O)N3CCC[C@H]3C(=O)N2)C(=O)CCSC[C@@H](C(=O)N[C@@H](CCCNC(=N)N)C(N)=O)NC(=O)[C@H](CCCNC(=N)N)NC1=O) [peptide 62 (bicyclic peptide without the N-terminal arginine)] | –
